From patent publication US9434716B2, “Antigen binding proteins” (Glaxo Group Limited, priority 2011, dated 2016)
“Also recorded” adds a separate entry of the source.

What was measured:
human SAP [1] = target: T1, human SAP (Homo sapiens, UniProt P02743); test: Binding of mouse monoclonals to immobilised human SAP in vitro
T1 construct: from tissue; host or cells: natural human SAP, purified
Description: SAP-E and SAP-K are from two groups of anti-SAP monoclonals, each group having been tested separately for their binding to human SAP in vitro.
(§1) SAP-K was selected from among the 6 different, most avidly binding, mouse IgG2a monoclonals, derived by standard techniques from immunization with purified human SAP and a conventional fusion to produce hybridomas which were cloned by routine methods. […] This was the case regardless of whether the human SAP had been directly immobilised on plastic surfaces by non-specific adherence or by covalent attachment, or by the specific calcium dependent binding of SAP to immobilised ligands, whether amyloid fibrils or the small molecule ligand, phosphoethanolamine. SAP-K also bound well to directly immobilised SAP in the presence or absence of calcium, and if the SAP had previously been complexed with CPHPC and then covalently ‘fixed’ in the decameric SAP-CPHPC complex (Pepys, M. B. et al (2002) Targeted pharmacological depletion of serum amyloid P component for treatment of human amyloidosis. Nature, 417: 254-259; Kolstoe, S. E. et al (2009) Molecular dissection of Alzheimer's disease neuropathology by depletion of serum amyloid P component. Proc. Natl. Acad. Sci. USA, 106: 7619-7623). SAP-E also bound well to human SAP in all these different configurations.

human SAP [2] = target: T1, human SAP; test: Biacore (BIAcoreX), human SAP covalently immobilised on the chip; type: binding; conditions: mean and SD of 3 replicate measurements
human SAP [3] = target: T1, human SAP; test: Immunoradiometric assay, human SAP captured by immobilised sheep polyclonal anti-human SAP antibody; type: binding; conditions: all levels of human SAP input; mean of 3 replicates
Description: as §1
Each point is the mean of 3 replicates.

human SAP [4] = target: T1, human SAP; test: Competition ELISA with chimeric anti-SAP mAb; type: binding; conditions: human SAP coated at 1 μg/mL; purified murine mAb
Description: A constant concentration of chimeric anti-SAP mAb was mixed with serial diluted (1:1) amounts of mouse anti-SAP mAbs. Plates were washed and the amount of chimeric antibody bound to the immobilised human SAP was detected using goat anti-human Kappa Light chain peroxidase conjugate (Sigma, A7164). The ELISA was developed using O-phenylenediamine dihydrochloride (OPD) peroxidase substrate (Sigma, P9187).

[5] = system: mice with systemic AA amyloidosis; test: SAP-E versus SAP-K in clearing systemic AA amyloid deposits (Example 16); type: in vivo, mouse; conditions: lower doses
Description: AA amyloidosis was induced and confirmed in wild-type C57BL/6 mice as detailed in Example 10 above. After loading the amyloid deposits with human SAP also detailed in Example 10, groups of mice were treated with 3 mg and 1 mg per mouse of the two different antibodies. […] All mice were bled for assay of circulating anti-SAP antibody at days 1, 5 and 15 after dosing with antibody, and all were killed on day 21 for estimation of amyloid load by Congo red staining. All sera were assayed for anti-SAP activity using a robust immunoradiometric assay standardised with purified SAP-E and SAP-K respectively, spiked at known concentrations into normal mouse serum.
Amyloid load was scored by four independent expert observers all blinded to the identity of each tissue examined. The scores of all observers were, as usual highly concordant and for statistical analysis, the total scores of all observers for both spleen and liver for each mouse were summed.

[6] = system: mice with systemic AA amyloidosis; test: Low dose SAP-E and SAP-K in clearing systemic AA amyloid deposits (Example 17); type: in vivo, mouse; conditions: low doses
Description: AA amyloidosis was induced and confirmed in wild-type C57BL/6 mice as detailed in Example 10 above. After loading the amyloid deposits with human SAP as also detailed in Example 10, groups of mice (n=10 each) were treated with single doses of either 0.5 mg and 1 mg per mouse of the two different antibodies, or 6 repeated doses of 0.15 mg, given at 3 or 4 day intervals. […] All were killed on day 29 for estimation of amyloid load by Congo red staining.

human CRP = target: T2, human CRP (Homo sapiens, UniProt P02741); test: Western blotting against CRP; type: binding; conditions: western blot, 500 ng and 100 ng loaded
T2 sequence (P02741 19-224): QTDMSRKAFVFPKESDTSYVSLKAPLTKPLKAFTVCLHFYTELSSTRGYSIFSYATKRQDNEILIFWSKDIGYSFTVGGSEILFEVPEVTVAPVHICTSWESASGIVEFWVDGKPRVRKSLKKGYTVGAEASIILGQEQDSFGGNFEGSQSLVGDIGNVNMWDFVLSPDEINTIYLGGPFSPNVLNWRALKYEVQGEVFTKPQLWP

human SAP [7] = target: T1, human SAP; test: Western blotting and fragment epitope mapping (CNBr, chymotrypsin); type: binding
Description: This is consistent with the kinetic stability and resistance to denaturation of SAP (Manning, M. and Colón, W. (2004) Biochemistry, 43: 11248-11254).
B, SDS-PAGE analysis of SAP cleaved with CNBr. […] These were precisely confirmed by mass spectrometry. […] C, SDS-PAGE analysis of SAP digested with chymotrypsin. Left panel: Coomassie blue stain; lane 1, untreated control SAP; lane 2, SAP after chymotrypsin digestion, showing the expected major fragments corresponding to residues 1-140 and 145-204. These were precisely confirmed by mass spectrometry. Right panel: Western blot with SAP-E showing intense staining of intact untreated SAP in lanes 1 (500 ng loaded) and 2 (100 ng), and also residual intact SAP in lanes 3 and 4 which contained the chymotrypsin digested SAP at different loadings. Very weak binding of SAP-E to the residue 1-140 fragment is seen only in lane 3 which was most heavily loaded. […] D, Sequence comparison between human SAP (h) and mouse SAP (m) for residues 136-147. Top panel, differences indicated above by residues shown in black in the murine sequence. Bottom panel, position of this extended loop with 140Y at its apex shown in white in the 3D subunit structure of human SAP. The different residues in the murine sequence are shown in black. The grey spheres represent the calcium atoms bound in the ligand binding pocket.

native human SAP = target: T3, native human SAP (Homo sapiens, UniProt P02743); test: Double immunodiffusion in agarose gel; type: binding; conditions: isolated pure human SAP and whole human serum
T3 construct: against both isolated pure human SAP and whole human serum; from tissue; host or cells: whole human serum, and isolated pure human SAP
T3 sequence (P02743 20-223): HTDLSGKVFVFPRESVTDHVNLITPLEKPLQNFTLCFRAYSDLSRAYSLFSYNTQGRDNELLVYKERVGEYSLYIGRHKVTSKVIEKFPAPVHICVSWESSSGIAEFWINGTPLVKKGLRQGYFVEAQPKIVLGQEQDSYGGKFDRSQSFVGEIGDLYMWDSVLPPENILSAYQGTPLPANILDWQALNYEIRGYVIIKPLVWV

human SAP [8] = target: T1, human SAP; test: Biacore kinetics, human SAP captured on immobilised O-phosphoethanolamine; type: binding; conditions: CM5 chip, calcium; bivalent analyte model; 25° C.; for comparison only, avidity effect
Description: O-phosphoethanolamine was immobilised on a Biacore CM5 chip by primary amine coupling in accordance with the manufacturer's instructions. Human SAP was then captured on the surface in the presence of calcium chloride, in order to replicate in the Biacore system in vitro, the precise orientation of SAP molecules bound to amyloid fibrils in vivo. Anti SAP antibodies were then passed over this surface at 256, 64, 16, 4, 1 nM and a binding sensorgrams obtained. Analysis was carried out at 25° C. using 4% BSA, 10 mM Tris, 140 mM NaCl, 2 mM CaCl2, 0.05% surfactant P20, 0.02% Na N3, pH 8.0 as running buffer. […] Data generated were double referenced with a buffer injection over the human SAP surface and analyzed using the bivalent analyte model in the Biacore T100 evaluation software.

T1 sequence (P02743 20-223): as above

B1: SAP-E: mouse IgG2a monoclonal anti-human SAP antibody, VH SEQ ID NO:7, VL SEQ ID NO:9 (antibody, V domains shown)
VH: QASLQQSGTELVRSGASVKMSCKASGFTFATYNMHWIKQTPGQGLEWIGYIYPGDGNANYNQQFKGKATLTADTSSNTAYMQISSLTSEDSAVYFCARGDFDYDGGYYFDSWGQGTTLTVSS
VL: DIQMTQSPASLSASVGETVTITCRASENIYSYLAWYQQKQGRSPQLLVHNAKTLAEGVPSRVSGSGSGTHFSLKINGLQPEDFGNYYCQHHYGAPLTFGAGTKLELK
Human SAP [1]; abundant immobilised SAP, coating solution 100 μg/ml
  binding to immobilised human SAP: more binding of SAP-E than SAP-K
Human SAP [1]; compared within the group of monoclonals
  binding to human SAP in vitro: strongest binding to SAP, within their groups
Human SAP [2]
  kd: 6 ± 4 × 10^−5 sec^−1
Human SAP [3]
  binding to human SAP captured by sheep polyclonal anti-human SAP: SAP-E bound better than SAP-K at all levels of human SAP input; also recorded: Substantially more SAP-E than SAP-K bound at all concentrations of human SAP offered
Human SAP [4]
  competition with SAP-K chimera: no competition
[5]
  potency in clearing amyloid, SAP-E compared with SAP-K: apparently more potent than SAP-K at the lower doses
[6]
  potency in clearing amyloid, SAP-E compared with SAP-K: again apparently more potent than SAP-K
Human CRP
  reaction with isolated pure human CRP: did not react at all
Human SAP [7]; after agarose gel electrophoresis in physiological buffers
  binding to native human SAP in western blotting: bound
Human SAP [7]; denatured human SAP
  binding to human SAP in western blotting from reduced SDS-PAGE: only SAP-E bound
Human SAP [7]; residues of human SAP, CNBr and chymotrypsin fragments
  epitope recognised: region 140-158
Native human SAP
  binding to native human SAP (immunoprecipitation): bound apparently equally well to native human SAP
Human SAP [8]
  ka: 31500 M⁻¹ s⁻¹
  kd: 1.51e-08 s⁻¹
